{"source": "patent US20230407267A1", "about": "“USES OF PATIENT-DERIVED SCAFFOLDS” (Iscaff Pharma AB, priority 2020, published 2023)", "tested_on": "MCF7 cells", "assay": "PDS co-culture of MCF7 cells with activated T-lymphocytes, with or without PD1 blockade: viability of MCF7 cells", "type": "cell-based, human", "conditions": "for % of viable MCF7 cells after 48 hours of co-culture with T-lymphocytes: MCF7 + TA+ pre-incubated with Pembr 100 μg/mL 30 min, relative to only-MCF7 control, average ± SD of 3 technical replicates", "description": "FIG. 25. PD1 blocking antibody increases the killing capacity of the T-lymphocytes in PDS-dependent manner. T-lymphocytes were activated 20 hours by exposition to CD3/CD28 Dynabeads. […] Then, the co-cultures were incubated for 48 hours. Controls including only MCF7 cells or T-lymphocytes, and 2D cultures were included. (A) Surface expression of PD1 by T-lymphocytes analyzed by FACS. (B) Graph showing the % of viable MCF7 cells after 48 hours of co-culture with T-lymphocytes in 5 different PDSs. Data are relative to their own control with only MCF7 cells and show average±SD of 3 technical replicates.\nIn addition, in FIG. 13, it is shown how differential expression of PDL1 by MCF7 cells is triggered by different breast cancer PDSs. […] First, T-lymphocytes were activated 20 hours by exposure to CD3/CD28 Dynabeads. […] The blockade of PD1 protein in the T-lymphocytes was confirmed by FACS (FIG. 25A). The T-lymphocytes, with or without PD1 blockade (Pembr) were then added to the PDS cultures, in which the MCF7 cells had been growing for 21 days. The co-cultures were incubated for 48 hours. Control samples included samples with MCF7 cells or T-lymphocytes on their own, and 2D cultures."}
{"substance": "Pembrolizumab", "values": [{"measurement": "% of viable MCF7 cells after 48 hours of co-culture with T-lymphocytes", "setting": "2D MCF7 culture", "value": "5.5 ± 0.6", "unit": "%"}, {"measurement": "% of viable MCF7 cells after 48 hours of co-culture with T-lymphocytes", "setting": "PDS13", "value": "31.2 ± 1.7", "unit": "%"}, {"measurement": "killing efficacy of the T-lymphocytes after Pembrolizumab treatment", "setting": "PDS13 and PDS17, compared to without this treatment", "value": "no changes"}, {"measurement": "killing effect of the T-lymphocytes after incubation with Pembrolizumab", "setting": "PDS14, PDS15 and PDS16, compared to T-lymphocytes without this treatment", "value": "higher"}, {"measurement": "% of viable MCF7 cells after 48 hours of co-culture with T-lymphocytes", "setting": "PDS14", "value": "12.8 ± 2.3", "unit": "%"}, {"measurement": "% of viable MCF7 cells after 48 hours of co-culture with T-lymphocytes", "setting": "PDS15", "value": "9.5 ± 0.6", "unit": "%"}, {"measurement": "% of viable MCF7 cells after 48 hours of co-culture with T-lymphocytes", "setting": "PDS16", "value": "9.1 ± 2.5", "unit": "%"}, {"measurement": "% of viable MCF7 cells after 48 hours of co-culture with T-lymphocytes", "setting": "PDS17", "value": "19.2 ± 4.3", "unit": "%"}, {"measurement": "killing capacity of the T-lymphocytes", "setting": "in PDS-dependent manner, FIG. 25 legend", "value": "increases"}]}
